Assay results as given in PMC6614801 (2019).

B1: N-terminally His6-tagged NusA^AR2 (domain or fragment)
chain: DNKPADDLLNLEGVDRDLAFKLAARGVCTLEDLAEQGIDDLADIEGLTDEKAGALIMAARNICWFGDEA

Key:
Assay in all cases: SPR
SuhB^KL251/254AA = SuhB^KL251/254AA (E. coli, UniProt P0ADG4 1-267, KL251/254AA | KL251/254AA)
SuhB^K108A = SuhB^K108A (E. coli, UniProt P0ADG4 1-267, K108A)
[1] = target: B1

## B1
SuhB^KL251/254AA
  koff: 0.341 s⁻¹
SuhB^K108A
  koff: 0.0498 s⁻¹

B2: SuhB (inositol mono-phosphatase SuhB), wild type (natural protein)
chain: MHPMLNIAVRAARKAGNLIAKNYETPDAVEASQKGSNDFVTNVDKAAEAVIIDTIRKSYPQHTIITEESGELEGTDQDVQWVIDPLDGTTNFIKRLPHFAVSIAVRIKGRTEVAVVYDPMRNELFTATRGQGAQLNGYRLRGSTARDLDGTILATGFPFKAKQYATTYINIVGKLFNECADFRRTGSAALDLAYVAAGRVDGFFEIGLRPWDFAAGELLVREAGGIVSDFTGGHNYMLTGNIVAGNPRVVKAMLANMRDELSDALKR
[1]
  koff: 0.0555 s⁻¹
